From US10429300B2, “Surface plasmon resonance approach to monitor protein-ligand interactions” (The Johns Hopkins University, priority 2015, dated 2019)

Tested on: rNav1.2a
Assay: Two-electrode voltage-clamp, rNav1.2a expressed in Xenopus oocytes
Assay type: cell-based, rat
Conditions: 100 nM toxin
Source text: The DNA sequence of rat (r)Nav1.2a (provided by A. Goldin, University of California, Irvine, Irvine, Calif.), rKv2.1 (provided by K. J. Swartz, National Institutes of Health), and the rNav1.2a/Kv2.1 VSD II or IV chimera was confirmed by automated DNA sequencing, and cRNA was synthesized using T7 polymerase (mMessage mMachine™ kit; Life Technologies) after linearizing the DNA with appropriate restriction enzymes. Channels were expressed in Xenopus oocytes (obtained from Xenopus 1) and studied after a 1-d incubation after cRNA injection (incubated at 17° C. in 96 mM NaCl, 2 mM KCl, 5 mM HEPES, 1 mM MgCl2, 1.8 mM CaCl2, and 50 μg/ml gentamycin, pH 7.6 with NaOH) using two-electrode voltage-clamp recording techniques (OC-725C; Warner Instruments) with a 150-μl recording chamber. Data were filtered at 4 kHz and digitized at 20 kHz using pClamp™ 10 software (Molecular Devices). Microelectrode resistances were 0.5-1.5 MΩ when filled with 3 M KCl. For Kv chimera channel experiments, the external recording solution contained (mM): 50 KCl, 50 NaCl, 5 HEPES, 1 MgCl2, and 0.3 CaCl2, pH 7.6 with NaOH. For rNav1.2a experiments, the external recording solution contained (mM): 100 NaCl, 5 HEPES, 1 MgCl2, and 1.8 CaCl2, pH 7.6 with NaOH. All experiments were performed at ˜22° C. Leak and background conductances, identified by blocking the channel with agitoxin-2 (provided by K. J. Swartz), have been subtracted for all of the Kv channel currents shown. […] Voltage-activation relationships were obtained by measuring tail currents for Kv channels or steady-state currents and calculating conductance for Nav channels, and a single Boltzmann function was fitted to the data according to I/Imax=[1c+cexp(−zF(Vc−cV1/2)/RT)]^−1, where I/Imax is the normalized tail-current amplitude, z is the equivalent charge, V1/2 is the half-activation voltage, F is Faraday's constant, R is the gas constant, and T is temperature in kelvin. For all channels, voltage-activation relationships were recorded in the absence and presence of toxin. The ratio of currents (I/I0) recorded in the presence (I) and absence (I0) of toxin was calculated for voltages typically ranging from −140 to 10 cmV, depending on the construct. […] The apparent equilibrium dissociation constant (apparent KD) for Kv channels was calculated according to KD=((1/(1c−cFu^1/4))c−c1)[toxin], assuming four independent toxin-binding sites per channel. Results are given as mean±SEM unless noted otherwise. Offline data analysis was performed using Clampfit 10™ (Molecular Devices), Origin 8.0™ (OriginLab), and Excel™ (Microsoft). All chemicals were obtained from Sigma-Aldrich.
Representative sodium currents were elicited by a 50-ms depolarization to a suitable membrane voltage (−20 to −15 mV) before (black) and after toxin addition (green) from a holding voltage of −90 mV. […] For each toxin, K^+ currents were elicited by a 300-ms depolarization to 0 mV from a holding voltage of −90 mV (tail voltage was −60 mV). […] For each toxin, K^+ currents (top) were elicited by a 300-ms depolarization near the foot of the voltage-activation curve (bottom) from a holding voltage of −90 mV.

B1: AaHII: Nav channel-selective α-scorpion toxin from Androctonus australis hector; model toxin (protein)
chain: VKDGYIVDDVNCTYFCGRNAYCNEECTKLKGESGYCQWASPYGNACYCYKLPDHVRTKGPGRCH
- effect on rNav1.2a fast inactivation (50-ms test pulse): inhibits rNav1.2a fast inactivation
- fast inactivation time constant (τ) after toxin application (single-exponential fit of current decay, n=3, mean±SEM): 4.9±0.1
